According to patent US7067117 (CAMBRIDGE UNIVERSITY TECHNICAL SERVICES, dated 2006):
Read-outs that look alike come from different tables or passages of the source. Bridge positions count the residues as written; N and C are the ends. Square brackets hold non-standard residues; d marks the D form. Ends that are not written are not given here.

T1: Duffy Antigen Receptor for Chemokines (DARC) (human, UniProt Q16570 1-336)
T1 chain: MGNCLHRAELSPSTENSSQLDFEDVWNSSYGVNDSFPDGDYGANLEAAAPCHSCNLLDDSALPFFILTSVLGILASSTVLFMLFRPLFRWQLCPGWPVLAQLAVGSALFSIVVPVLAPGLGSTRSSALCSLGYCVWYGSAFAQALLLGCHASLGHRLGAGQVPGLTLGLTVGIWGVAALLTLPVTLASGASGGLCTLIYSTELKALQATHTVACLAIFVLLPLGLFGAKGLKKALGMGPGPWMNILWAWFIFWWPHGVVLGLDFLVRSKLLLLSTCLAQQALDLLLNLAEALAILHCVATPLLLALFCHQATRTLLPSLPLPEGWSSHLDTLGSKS

T2: Duffy Antigen Receptor for Chemokines (DARC) (human) (UniProt Q16570)
T2 sequence (looked up): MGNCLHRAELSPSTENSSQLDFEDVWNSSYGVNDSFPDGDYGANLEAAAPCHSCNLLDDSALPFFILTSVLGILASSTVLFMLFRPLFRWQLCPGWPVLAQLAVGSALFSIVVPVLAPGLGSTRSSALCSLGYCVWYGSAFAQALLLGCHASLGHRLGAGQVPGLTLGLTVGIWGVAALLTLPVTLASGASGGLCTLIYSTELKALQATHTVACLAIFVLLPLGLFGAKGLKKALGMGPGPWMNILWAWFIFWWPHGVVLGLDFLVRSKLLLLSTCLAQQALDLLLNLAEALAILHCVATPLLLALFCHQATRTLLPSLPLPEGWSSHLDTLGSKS

T3: Duffy Antigen Receptor for Chemokines (DARC) (human, UniProt Q16570 1-336)
T3 construct: whole, on cells
T3 sequence (looked up): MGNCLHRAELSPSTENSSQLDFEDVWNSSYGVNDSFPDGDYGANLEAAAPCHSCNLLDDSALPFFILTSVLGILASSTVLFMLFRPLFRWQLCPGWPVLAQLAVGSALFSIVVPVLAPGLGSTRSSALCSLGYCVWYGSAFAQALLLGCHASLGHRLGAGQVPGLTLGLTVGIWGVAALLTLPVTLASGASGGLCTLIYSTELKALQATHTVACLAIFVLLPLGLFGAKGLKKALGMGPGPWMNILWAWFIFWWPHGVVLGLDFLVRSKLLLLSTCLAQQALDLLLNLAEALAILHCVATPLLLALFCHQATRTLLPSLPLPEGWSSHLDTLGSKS


What was measured:
[1] = molecular target: T1, Duffy Antigen Receptor for Chemokines …; assay: DARC binding
[2] = molecular target: chemokine receptors on THP-1 cells; assay: cell-based or functional assay
[3] = molecular target: T2, Duffy Antigen Receptor for Chemokines (DARC) (human); assay: estimated ka for binding to red blood cells divided by average inhibitory ED50 (THP-1 migration)
[4] = molecular target: chemokine receptors on THP-1 cells; assay: estimated ka for binding to THP-1 cells, printed under 'AVERAGE ED50 (µM)'
[5] = molecular target: T3, Duffy Antigen Receptor for Chemokines …; assay: ka for binding to red blood cells divided by ka for binding to THP-1 cells
[6] = molecular target: T3, Duffy Antigen Receptor for Chemokines …; assay: estimated ka for binding to red blood cells divided by average inhibitory ED50 (THP-1 migration)
Method: Counts associated with the cells are then determined by gamma-counting scintigraphy. […] Furthermore, Scatchard analysis confirms the presence of a single high affinity binding site with 500–1000 copies per cell, consistent with the known properties of DARC.
The DARC specificity ratio is also determined. The DARC specificity ratio is defined as the estimated ka for association with DARC divided by the $ED50$ for biological activity. […] Thus, it may be difficult to achieve biologically active (as a chemokine inhibitor) concentrations of these peptides in vivo without further modifications of the peptide.
Footnotes [a]'CC-specificity' is the average inhibitory ED$50$ versus SDF1 and IL8 divided by average inhibitory ED$50$ versus MCP-1 and MIP1α. [b]'Duffy selectivity' is the estimated ka for binding to red blood cells divided by average inhibitory ED$50$ versus each of the chemokines (except for peptide 2; see footnote d below). [c]'Average ED$50$' is the average inhibitory ED$50$ for inhibition of THP-1 migration induced by each of the chemokines (except for peptide 2; see footnote e below). [d]For the peptide 2 family, the 'average ED$50$' is the estimated ka for binding to THP-1 cells. [e]For the peptide 2 family, the 'Duffy selectivity' is calculated as the ka for binding to red blood cells divided by the ka for binding THP1-1 cells. [f]For tripeptide derivatives so marked, the peptide is highly specific for one of the four exemplary chemokines.

[7] = molecular target: chemokine receptors on THP-1 cells; assay: cell-based or functional assay; remark: listed apart in the source
[8] = molecular target: T2, Duffy Antigen Receptor for Chemokines (DARC) (human); assay: DARC binding on red blood cells; given as 'association constant'
[9] = molecular target: chemokine receptors on THP-1 cells; assay: binding to chemokine receptors on THP-1 cells; given as 'association constant'

| Binder | Kd [1] | ED50 for inhibition of THP-1 migration versus IL8 [2] | ED50 for inhibition of THP-1 migration versus MCP1 [2] | ED50 for inhibition of THP-1 migration versus MIP1α [2] | ED50 for inhibition of THP-1 migration versus SDF1α [2] | average ED50 for inhibition of THP-1 migration induced by each of the chemokines [2] | also measured |
| --- | --- | --- | --- | --- | --- | --- | --- |
| CPKEAV | > 100 µM |  |  |  |  |  |  |
| EICADP [peptide 3(1-6)[MCP-1]] |  | 17 µM | 33 µM | 25 µM | 19 µM | 24 µM | Duffy selectivity [3]: 5.32 |
| CSKPGV | > 100 µM |  |  |  |  |  |  |
| [dC][dQ][dV][dW][dK][dQ][dK][dP][dD][dA][dC] (disulfide 1-11 (inferred); not fully specified; printed as -CQVWKQKPDAC--) [CRD-Cys13pep3[3-12]] |  |  |  |  |  | 0.8 µM | Duffy selectivity [3]: 8.82 |
| EICADPSQKWVQ (Mutant of peptide 3; also called Ser7pep3) [Ser7peptide 3(1-12)[MCP-1]] |  | 3 µM | 7 µM | 6 µM | 4 µM | 5 µM | Duffy selectivity [6]: 2 ratio |
| EICADPKQKWIQ [Ile11peptide 3(1-12)[MCP-1]] |  | 2 µM | 6 µM | 4 µM | 7 µM | 5 µM |  |
| CADPKQKWVQ (also called Pep3[3-12]; Pep3(3-12)[MCP-1]) [peptide 3(3-12)[MCP-1]] |  | 9 µM | 8 µM | 7 µM | 9 µM | 8 µM | Duffy selectivity [6]: 1.21 ratio |
| DYFETSSQC | > 100 µM |  |  |  |  |  |  |
| [dC][dQ][dI][dW][dK][dQ][dK][dP][dD][dL][dC] (disulfide 1-11) [CRD-Cys13Leu4Ile11peptide 3(3-12)[MCP-1]] |  |  |  |  |  |  | ED50 for inhibition of MCP-1 induced THP-1 migration [7]: 0.001 µM; average ED50 for inhibition of THP-1 migration induced by each of the chemokines [7]: 0.1 µM; Kd [8]: 90 µM; Kd [9]: 0.1 to 0.5 µM; Duffy selectivity [3]: > 100 |

Now from value to binder, other results behind:

| Kd [1] | ED50 for inhibition of THP-1 migration versus IL8 [2] | ED50 for inhibition of THP-1 migration versus MCP1 [2] | ED50 for inhibition of THP-1 migration versus MIP1α [2] | ED50 for inhibition of THP-1 migration versus SDF1α [2] | average ED50 for inhibition of THP-1 migration induced by each of the chemokines [2] | Binder | also measured |
| --- | --- | --- | --- | --- | --- | --- | --- |
| 19 µM |  |  |  |  |  | HLKILNTPNCALQIV (also called Pep2[SDF1]; Pep2(1-15)[SDF1]) [peptide 2(1-15)[SDF1]] | Kd [4]: 1 to 10 µM; Duffy selectivity [5]: < 1 ratio |
| > 100 µM |  |  |  |  |  | SYRRI |  |
| > 100 µM |  |  |  |  |  | VGPKSCQSSTEFYD |  |
| > 100 µM |  |  |  |  |  | TSSKC |  |
